According to PMC8282004:

Biological target: hACE2-K31N/K353H (human) (UniProt Q9BYF1)
Test: flow cytometry on cells

Question: “recombinant SARS-CoV-2 spike RBD-Fc protein (from UniProt P0DTC2 319-524) (Fc fusion)” was tested. Which binding efficiency (percentage of GFP+ cells that bound RBD-Fc) did it give?
Answer: The binding efficiency (percentage of GFP+ cells that bound RBD-Fc) was 7.86%.
